In the supplement of paper PMC10724198 one finds protein stability index data, which are given here for 116 sequences.

± gives the standard deviation of the averaged measurements.
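Note: PSI is a weighted mean of sequencing reads over stability bins, variants kept only with over 10 reads, mCherry proximal and sfGFP distal, peptide attached via GGGS linker.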

The test system of the data set is Saccharomyces cerevisiae. As to the kind of experiment: protein stability index of tFT-peptide fusion (C-terminal peptide) (PSI (0-1 scale)); higher = more stable (slower turnover). To be noted: genetic background: wild type; temperature: 30 C.
In the case of IGCFVEFLYGVW, the protein stability index is 0.593 ± 0.023. IGFHGALPGICL registered a protein stability index of 0.663 ± 0.054.

IGLRKGVGIMRP: the protein stability index came out at 0.637 ± 0.12. With IGRGAPPGWVGA the figure was 0.704 ± 0.02.

For IGSLCTPVCQCS, the protein stability index came out at 0.607 ± 0.019.

In the case of IHLCPPPALRES, the protein stability index turned out to be 0.703 ± 0.0083. With IHRTSVALFFFP the figure was 0.713 ± 0.034; with IIAESPWFLIIR, 0.444 ± 0.094. The sequence IIEESTRPSPLG showed a protein stability index of 0.697 ± 0.059. With IIFQWVVPTILQ the figure was 0.546 ± 0.019; with IIIVGSWSGGGG, 0.663 ± 0.025; with IILRSSLLPLLY, 0.548 ± 0.013. With IINKKANQKKKE the figure was 0.68 ± 0.032. Sequence IIPEPTKFSRQR showed a protein stability index of 0.7059 ± 0.0026. With IIQTTKPTRNIK the figure was 0.67 ± 0.022; with IIRINSKMGSRK, 0.725 ± 0.0078. With IKIILLEKQGSK the figure was 0.697 ± 0.033; with IKKANRKTKPMK, 0.712 ± 0.078. IKKKVKNQKENQ came in with a protein stability index of 0.726 ± 0.013. With IKKNRYYKRIII the figure was 0.657 ± 0.028; with IKNEKKKEIELN, 0.639 ± 0.0065; with IKNEKKNKRKKK, 0.71337 ± 0.00014.

As for IKPTRKKTISTR, the protein stability index turned out to be 0.715 ± 0.095. With IKRRKRNRKRGP the figure was 0.675 ± 0.041; with IKTCANGPPHSM, 0.64 ± 0.06; with ILCASDLNRPCL, 0.697 ± 0.04.

As for ILFVTASSFSPP, the protein stability index was 0.67 ± 0.045.

The sequence ILPCLSVRFFAP returned a protein stability index of 0.658 ± 0.0068. Turning to ILPYTDTVCYRY, the protein stability index came out at 0.699 ± 0.047.

For the sequence ILRLVGRGLVLL, the protein stability index was determined as 0.639 ± 0.013. For ILSDCWDQTIIE, the protein stability index was 0.671 ± 0.018. With ILSFPYSQYFMS, the protein stability index was found to be 0.7242 ± 0.0052. ILSRTEGHCLII yielded a protein stability index of 0.739 ± 0.074. With ILVGPTDFLPLE the figure was 0.651 ± 0.016. With ILVSRQGRGMRS the figure was 0.643 ± 0.013.

Consider ILVSVLRFVRNR, for which the protein stability index came out at 0.691 ± 0.029. With IMGGGGEGGINC the figure was 0.698 ± 0.019; with IMRLCSSNRICG, 0.678 ± 0.027. With INGSTENKSVKT the figure was 0.644 ± 0.012; with INKNKKKEKLTK, 0.697 ± 0.015; with INVKRSNAQRKG, 0.754 ± 0.058. With INVNNENLRGTE the figure was 0.663 ± 0.072. Consider IPDPSPFTCPNV, for which the protein stability index came to 0.557 ± 0.02. With IPGVPPPRFSIR the figure was 0.704 ± 0.034. With IPLCRVAGPKLK the figure was 0.591 ± 0.048; with IPLPMLLHLPRA, 0.684 ± 0.019; with IPRHLGTRVVPI, 0.682 ± 0.072. IPSLSLPLQTGS returned a protein stability index of 0.64 ± 0.055. With IQAERKKSYKDT the figure was 0.616 ± 0.075.

Take IQSRGQEKKKRK: the protein stability index worked out at 0.673 ± 0.0075. With IRGWVRCRVARG the figure was 0.683 ± 0.021; with IRILDARYLSIS, 0.62 ± 0.12.

The sequence IRKKIRKKTIYK registered a protein stability index of 0.798 ± 0.034. With IRKKNKEKIKNQ the figure was 0.691 ± 0.25. With IRKPRRHRTVET the figure was 0.73 ± 0.057; with IRNSDNNKNHPR, 0.693 ± 0.042; with IRPSQASSLRKT, 0.634 ± 0.066.

For the sequence IRQPIPTKVHRL, the protein stability index was determined as 0.744 ± 0.045. With IRVAWTPRSYDL the figure was 0.664 ± 0.038. ISALYVPGILSK displayed a protein stability index of 0.6 ± 0.018. With ISCSDNMLLLFD the figure was 0.697 ± 0.01; with ISCTASRCRLTR, 0.744 ± 0.025. With ISFGSVFSGFFH the figure was 0.7354 ± 0.0014; with ISFTDPSMGTLG, 0.608 ± 0.11.

ISGEISTLLKTR: the protein stability index turned out to be 0.71 ± 0.081. With ISLGGNWHRVVT the figure was 0.649 ± 0.019. With ISSGRRFRAGAE the figure was 0.703 ± 0.046; with ISSIRKNSKREE, 0.755 ± 0.031.

In turn, ISVRAVDFGIAG came in with a protein stability index of 0.68 ± 0.033. On to ITAATFCRRPAS, for which the protein stability index is 0.659 ± 0.12.

ITGSRVQVYIGR returned a protein stability index of 0.693 ± 0.021. Turning to ITKELKNIKQED, the protein stability index was 0.675 ± 0.0088. With ITLSCFPRPFPL the figure was 0.691 ± 0.02; with ITRAKGKPEISL, 0.639 ± 0.12; with IVAWQGRNLTPL, 0.655 ± 0.12.

IVGAVMMGGRTM showed a protein stability index of 0.68 ± 0.013. With IVGEDRRRTAFR the figure was 0.678 ± 0.026. With IVMGVGCYTGRP the figure was 0.74 ± 0.036; with IWAKLGFRLQYS, 0.701 ± 0.13; with IWGGGKGRAGRH, 0.651 ± 0.041. With IYCGDRGITGGV the figure was 0.683 ± 0.019; with IYCWGVSFGWLR, 0.68 ± 0.021. With IYHCRKSYKTRQ, the protein stability index turned out to be 0.7205 ± 0.0042. With IYNGMLREEKSL the figure was 0.728 ± 0.017; with KAGVWLWGGGGG, 0.678 ± 0.069; with KALGLRDHAILD, 0.6583 ± 0.004.

In the case of KALKNEYRYRAF, the protein stability index stood at 0.645 ± 0.073. With KAPPDERGTGAQ the figure was 0.6273 ± 0.0018; with KARLRQRKSTSK, 0.728 ± 0.0084; with KAVSRQSEATPV, 0.76 ± 0.093.

For the sequence KAYGSCRSLAWF, the protein stability index stood at 0.712 ± 0.061.

KCKRGYSAVREL displayed a protein stability index of 0.936 ± 0.09. The sequence KCSKGSQGECHV came in with a protein stability index of 0.671 ± 0.05. With KDGSKMQCNIKK the figure was 0.6763 ± 0.0014; with KEDLGGMVSGGR, 0.644 ± 0.009; with KEEIRNKIKTIK, 0.6809 ± 0.0063. KEKKGNKTKKQN came in with a protein stability index of 0.657 ± 0.017. With KEKRLKATTQYE the figure was 0.699 ± 0.015. Sequence KELENLHDNEGN came in with a protein stability index of 0.616 ± 0.019. With KELRYKKDRKKK the figure was 0.689 ± 0.026; with KENYGIKTKDRK, 0.696 ± 0.075. With KEQKIMSKKIEK the figure was 0.68978 ± 0.00026; with KEREGGSMNGGG, 0.692 ± 0.064; with KEWLSRDIEDAS, 0.665 ± 0.027. With KFRFPVDLIFET the figure was 0.73 ± 0.015. Sequence KGDMSCWPSRPI gave a protein stability index of 0.7137 ± 0.00075. With KGGWGMRGVRGG the figure was 0.672 ± 0.0046; with KGKFTRGGMAGT, 0.668 ± 0.049.

As to KGKKRKNEKNKR, the protein stability index was 0.691 ± 0.0089.

Turning to KGLLSITLRNLD, the protein stability index turned out to be 0.63 ± 0.049. With KGMVEESIIKRA the figure was 0.62084 ± 0.00038; with KGRKKKKRKEQE, 0.693 ± 0.016; with KGRRVSTGRRRR, 0.712 ± 0.004. With KGRWEVRGEGRG the figure was 0.64 ± 0.03; with KGSWCSPRGELR, 0.6552 ± 0.0059; with KHKGRSKETHDV, 0.616 ± 0.09.
